From PMC10951265

Columns and labels:
[1] = target: PorXFj (Fjoh_2906), the Flavobacterium johnsoniae PorX homolog, purified, not phosphorylated (Flavobacterium johnsoniae) (UniProt A5FFU4); test: SEC; PorXFj 1.6 mg/mL incubated 1 h at RT with 100 uM MnCl2; Superdex 200 Increase 10/300 GL in PBS with 100 uM MnCl2
[2] = target: PorXFj (Fjoh_2906), the Flavobacterium johnsoniae PorX homolog, purified, not phosphorylated (Flavobacterium johnsoniae) (UniProt A5FFU4); test: SEC; PorXFj 1.6 mg/mL incubated 1 h at RT with 100 uM CuCl2; Superdex 200 Increase 10/300 GL in PBS with 100 uM CuCl2
[3] = target: PorXFj (Fjoh_2906), the Flavobacterium johnsoniae PorX homolog, purified, not phosphorylated (Flavobacterium johnsoniae) (UniProt A5FFU4); test: SEC; PorXFj 1.6 mg/mL incubated 1 h at RT with 100 uM ZnCl2; Superdex 200 Increase 10/300 GL in PBS with 100 uM ZnCl2
[4] = target: PorXFj (Fjoh_2906), the Flavobacterium johnsoniae PorX homolog, purified, not phosphorylated (Flavobacterium johnsoniae) (UniProt A5FFU4); test: SEC-MALS; PorXFj 1.6 mg/mL incubated 1 h at RT with 100 uM ZnCl2; column equilibrated in PBS only
[5] = target: phosphorylated PorXFj (PorXFj incubated with acetyl phosphate and MgCl2) (Flavobacterium johnsoniae) (UniProt A5FFU4); test: SEC-MALS; PorXFj 1.6 mg/mL incubated 1 h at RT with 20 mM AcP + 10 mM MgCl2; Superdex 200 Increase 10/300 GL in PBS

stoichiometry N [1] | stoichiometry N [2] | stoichiometry N [3] | stoichiometry N [4] | stoichiometry N [5] | Substance
2 | 2 | 2 | 2 | – | PorXFj (Fjoh_2906), the Flavobacterium johnsoniae PorX homolog, purified, not phosphorylated (from UniProt A5FFU4 1-517) (natural protein)
– | – | – | – | 2 | phosphorylated PorXFj (PorXFj incubated with acetyl phosphate and MgCl2) (from UniProt A5FFU4 1-517) (natural protein)
